# Measured values reported in US20200024330A1.
# Columns and labels:
# Assay in all cases: cell-based or functional assay
# [1] = biological target: HIV-1 CMU02 envelope protein (Env) on pseudovirus (HIV-1)
# [2] = biological target: HIV-1 IAVI-C22 envelope protein (Env) on pseudovirus (HIV-1)
# [3] = biological target: HIV-1 92UG024 envelope protein (Env) on pseudovirus (HIV-1)
# [4] = biological target: HIV-1 94UG103 envelope protein (Env) on pseudovirus (HIV-1)
# [5] = biological target: HIV-1 Env of isolate MGRM-G-014 (clade G pseudovirus) (HIV-1)
# [6] = biological target: HIV-1 Env of isolate MGRM-D-014 (clade D) (HIV-1)
# [7] = biological target: HIV-1 MGRM-C-022 Env (HIV-1)
# [8] = biological target: HIV-1 MGRM-A-001 envelope glycoprotein (Env) (HIV-1)
# [9] = biological target: HIV-1 MGRM-A-009 envelope glycoprotein (Env) (HIV-1)
# [10] = biological target: HIV-1 Env of isolate MGRM-D-016 (clade D) (HIV-1)
# [11] = biological target: HIV-1 Env of pseudovirus MGRM-Chronic-B-002, clade B (HIV-1)
# [12] = biological target: HIV-1 APV-13 envelope protein (Env) on pseudovirus (HIV-1)
# [13] = biological target: HIV-1 MGRM-C-015 Env (HIV-1)
# [14] = biological target: HIV-1 MGRM-A-012 envelope glycoprotein (Env) (HIV-1)
# [15] = biological target: HIV-1 Env of isolate MGRM-D-029 (clade D) (HIV-1)
# [16] = biological target: HIV-1 Env of isolate MGRM-G-017 (clade G pseudovirus) (HIV-1)
# [17] = biological target: HIV-1 Env of pseudovirus MGRM-Chronic-B-001, clade B (HIV-1)
# [18] = biological target: HIV-1 Env of isolate 98IN022 (HIV-1)
# [19] = biological target: HIV-1 Env of isolate 93MW959 (HIV-1)
# [20] = biological target: HIV-1 JR-CSF Env N160K (HIV-1 (isolate JR-CSF)) (UniProt P20871)
# [21] = biological target: HIV-1 Env of isolate MGRM-AE-005 (CRF01_AE), on pseudovirus (HIV-1)
# [22] = biological target: HIV-1 JR-CSF Env R476A (HIV-1 (isolate JR-CSF)) (UniProt P20871)
# [23] = biological target: HIV-1 Env of isolate MGRM-Chronic-B-002 (HIV-1)
# [24] = biological target: HIV-1 Env of isolate MGRM-D-028 (subtype D), on pseudovirus (HIV-1)
# [25] = biological target: HIV-1 Env of isolate MGRM-D-012 (HIV-1)
# [26] = biological target: HIV-1 Env of isolate MGRM-C-017 (HIV-1)
# [27] = biological target: HIV-1 JR-CSF Env D167A (HIV-1 (isolate JR-CSF)) (UniProt P20871)
# [28] = biological target: HIV-1 Env of isolate MGRM-A-012 (clade A), on pseudovirus (HIV-1)
# [29] = biological target: HIV-1 Env of isolate MGRM-G-025 (HIV-1)
# [30] = biological target: HIV-1 Env of isolate MGRM-AG-006 (CRF_AG), on pseudovirus (HIV-1)
# [31] = biological target: HIV-1 JR-CSF Env I165A (HIV-1 (isolate JR-CSF)) (UniProt P20871)
# [32] = biological target: HIV-1 Env of isolate MGRM-A-011 (clade A), on pseudovirus (HIV-1)
# Sequence of 1443_C16 (PG16) (TCN-116) (antibody) (VH): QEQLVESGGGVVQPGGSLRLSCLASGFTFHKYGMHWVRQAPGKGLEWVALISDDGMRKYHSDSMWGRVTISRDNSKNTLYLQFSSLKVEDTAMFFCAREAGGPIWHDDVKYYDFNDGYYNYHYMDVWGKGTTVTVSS
# Sequence of 1443_C16 (PG16) (TCN-116) (antibody) (VL): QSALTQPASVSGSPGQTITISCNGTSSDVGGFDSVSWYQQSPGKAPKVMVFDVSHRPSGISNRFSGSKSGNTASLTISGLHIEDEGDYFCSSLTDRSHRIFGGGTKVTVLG
Substance,neutralization IC50 [1] [µg/mL],neutralization IC50 [2] [µg/mL],neutralization IC50 [3] [µg/mL],neutralization IC50 [4] [µg/mL],"IC50 (µg/ml), pseudovirus neutralization [5] [µg/mL]","IC50 (µg/ml), pseudovirus neutralization [6] [µg/mL]",IC50 [7] [µg/mL],"IC50 (µg/ml), pseudovirus neutralization [8] [µg/mL]","IC50 (µg/ml), pseudovirus neutralization [9] [µg/mL]","IC50 (µg/ml), pseudovirus neutralization [10] [µg/mL]","IC50 (µg/ml), pseudovirus neutralization [11] [µg/mL]",neutralization IC50 [12] [µg/mL],IC50 [13] [µg/mL],"IC50 (µg/ml), pseudovirus neutralization [14] [µg/mL]","IC50 (µg/ml), pseudovirus neutralization [15] [µg/mL]","IC50 (µg/ml), pseudovirus neutralization [16] [µg/mL]","IC50 (µg/ml), pseudovirus neutralization [17] [µg/mL]",also measured
2F5 (antibody),0.38,> 50,1.27,3.79,9.65,2.22,> 50,> 50,9.4,9.85,1.25,2.8,> 50,2.36,> 50,0.6,0.55,
2G12 (antibody),> 50,> 50,0.59,> 50,> 50,> 50,> 50,> 50,7.47,> 50,> 50,23.9,1.75,> 50,> 50,> 50,0.08,
4E10 (antibody),0.59,1.02,1.32,9.7,13.7,3.24,5.71,15.1,12,15.4,2.19,3.8,2.52,4.27,5.3,1.14,1.46,
1443_C16 (PG16) (TCN-116) (antibody),> 50,0.0687,> 50,0.008,6.98,0.003,0.25,> 50,0.01,0.02,3.06,> 50,0.26,20.7,> 50,0.02,> 50,
1495_C14 (PGC14) (antibody),> 50,9.5,> 50,> 50,> 50,48,> 50,> 50,> 50,> 50,> 50,> 50,> 50,> 50,> 50,> 50,> 50,
5147_N06 (PGT-130) (antibody),,,,,,,,,,,,,,,,,,"IC50 [18]: > 50 µg/mL; IC50 [19]: 8.55 µg/mL; Fold IC50 increase relative to wild-type [20]: 3.4 fold; IC50, single-round pseudovirus neutralization [21]: 0.006 µg/mL; Fold IC50 increase relative to wild-type [22]: 1.3 fold; IC50 [23]: > 50 µg/mL; IC50, pseudovirus neutralization [24]: 0.825 µg/mL; IC50 [25]: > 50 µg/mL; IC50 [26]: > 50 µg/mL; Fold IC50 increase relative to wild-type [27]: 1.2 fold; IC50, single-round pseudovirus neutralization [28]: > 50 µg/mL; IC50, pseudovirus neutralization [29]: 8.45 µg/mL; IC50, single-round pseudovirus neutralization [30]: 0.009 µg/mL; Fold IC50 increase relative to wild-type [31]: 3.2 fold; IC50, single-round pseudovirus neutralization [32]: > 50 µg/mL"
5343_B08 (PGT-135) (antibody),,,,,,,,,,,,,,,,,,"IC50 [18]: 0.014 µg/mL; IC50 [19]: > 50 µg/mL; Fold IC50 increase relative to wild-type [20]: 7.7 fold; IC50, single-round pseudovirus neutralization [21]: > 50 µg/mL; Fold IC50 increase relative to wild-type [22]: 0.8 fold; IC50 [23]: > 50 µg/mL; IC50, pseudovirus neutralization [24]: > 50 µg/mL; IC50 [25]: > 50 µg/mL; IC50 [26]: > 50 µg/mL; Fold IC50 increase relative to wild-type [27]: 0.7 fold; IC50, single-round pseudovirus neutralization [28]: > 50 µg/mL; IC50, pseudovirus neutralization [29]: 0.592 µg/mL; IC50, single-round pseudovirus neutralization [30]: 17.9 µg/mL; Fold IC50 increase relative to wild-type [31]: 4 fold; IC50, single-round pseudovirus neutralization [32]: > 50 µg/mL"
b12 (antibody),4.25,3.6,49.1,3.54,> 50,> 50,> 50,> 50,4.34,1.12,0.86,> 25,13.3,> 50,> 50,> 50,0.75,
